Publication PMC6804253, “Predicting and Experimentally Validating Hot-Spot Residues at Protein–Protein Interfaces” (ACS Chemical Biology, 2019)

Legend:
[1] = tested on: PPIs of the SKEMPI data set (by PDBID); experiment: SKEMPI experimental ΔΔG, single mutations to alanine; type: binding; details: class of the SKEMPI experimental ΔΔG
[2] = tested on: PPIs of the SKEMPI data set (by PDBID); details: single mutation to alanine, ref SKEMPI, cited from earlier work; for sk_ddG_kJ (SKEMPI experimental ΔΔG): residue group SQNT; for sk_ddG_kJ: SKEMPI experimental ΔΔG of binding, complex by PDBID

Row | Molecule | sk_class ([1]; ref SKEMPI) | sk_ddG_kJ (SKEMPI experimental ΔΔG, mutation to alanine) ([2]; complex given by PDBID, chain and residue by mut_pdb) | sk_class [1] | sk_ddG_kJ (SKEMPI experimental ΔΔG) ([2]; complex given by PDBID) | sk_ddG_kJ [2]
1 | 2WPT SA50A (protein, UniProt P04482 1-86, looked up, variant S50A) Colicin-E2 immunity protein: MELKHSISDYTEAEFLEFVKKICRAEGATEEDDNKLVREFERLTEHPDGADLIYYPRDDREDSPEGIVKEIKEWRAANGKSGFKQG | Positive (positive (a hot residue) ΔΔG ≥ 4.184 kJ/mol) | 10.04 kJ |  |  | 
2 | 1EMV NA24A (protein, UniProt P13479 1-86, looked up, variant N24A) Colicin-E9 immunity protein: MELKHSISDYTEAEFLQLVTTICAADTSSEEELVKLVTHFEEMTEHPSGSDLIYYPKEGDDDSPSGIVNTVKQWRAANGKSGFKQG |  |  | Neutral (neutral (little effect) 4.184 kJ/mol < ΔΔG > −4.184 kJ/mol) | 0.59 kJ | 
3 | 1EMV SA48A (protein, UniProt P13479 1-86, looked up, variant S48A) Colicin-E9 immunity protein: MELKHSISDYTEAEFLQLVTTICNADTSSEEELVKLVTHFEEMTEHPAGSDLIYYPKEGDDDSPSGIVNTVKQWRAANGKSGFKQG |  |  | Neutral (neutral (little effect) 4.184 kJ/mol < ΔΔG > −4.184 kJ/mol) | 0.04 kJ | 
4 | 1EMV NA69A (protein, UniProt P13479 1-86, looked up, variant N69A) Colicin-E9 immunity protein: MELKHSISDYTEAEFLQLVTTICNADTSSEEELVKLVTHFEEMTEHPSGSDLIYYPKEGDDDSPSGIVATVKQWRAANGKSGFKQG |  |  | Neutral (neutral (little effect) 4.184 kJ/mol < ΔΔG > −4.184 kJ/mol) | 1.17 kJ | 
5 | 1EMV TA44A (protein, UniProt P13479 1-86, looked up, variant T44A) Colicin-E9 immunity protein: MELKHSISDYTEAEFLQLVTTICNADTSSEEELVKLVTHFEEMAEHPSGSDLIYYPKEGDDDSPSGIVNTVKQWRAANGKSGFKQG |  |  | Neutral (neutral (little effect) 4.184 kJ/mol < ΔΔG > −4.184 kJ/mol) | 1.26 kJ | 
6 | 1EMV SA29A (protein, UniProt P13479 1-86, looked up, variant S29A) Colicin-E9 immunity protein: MELKHSISDYTEAEFLQLVTTICNADTSAEEELVKLVTHFEEMTEHPSGSDLIYYPKEGDDDSPSGIVNTVKQWRAANGKSGFKQG |  |  | Neutral (neutral (little effect) 4.184 kJ/mol < ΔΔG > −4.184 kJ/mol) | 4.02 kJ | 
7 | 1EMV SA50A (protein, UniProt P13479 1-86, looked up, variant S50A) Colicin-E9 immunity protein: MELKHSISDYTEAEFLQLVTTICNADTSSEEELVKLVTHFEEMTEHPSGADLIYYPKEGDDDSPSGIVNTVKQWRAANGKSGFKQG |  |  | Positive (positive (a hot residue) ΔΔG ≥ 4.184 kJ/mol) | 9.16 kJ | 
8 | 1EMV SA63A (protein, UniProt P13479 1-86, looked up, variant S63A) Colicin-E9 immunity protein: MELKHSISDYTEAEFLQLVTTICNADTSSEEELVKLVTHFEEMTEHPSGSDLIYYPKEGDDDAPSGIVNTVKQWRAANGKSGFKQG |  |  | Neutral (neutral (little effect) 4.184 kJ/mol < ΔΔG > −4.184 kJ/mol) | 3.64 kJ | 
9 | 1AHW DC178A (protein, UniProt P13726 33-251, looked up, variant D178A, extracellular domain) extracellular domain: SGTTNTVAAYNLTWKSTNFKTILEWEPKPVNQVYTVQISTKSGDWKSKCFYTTDTECDLTDEIVKDVKQTYLARVFSYPAGNVESTGSAGEPLYENSPEFTPYLETNLGQPTIQSFEQVGTKVNVTVEDERTLVRRNNTFLSLRDVFGKDLIYTLYYWKSSSSGKKTAKTNTNEFLIAVDKGENYCFSVQAVIPSRTVNRKSTDSPVECMGQEKGEFRE | Neutral (neutral (little effect) 4.184 kJ/mol < ΔΔG > −4.184 kJ/mol) |  |  |  | -2.01 kJ
10 | 1DAN KT15A (protein, UniProt P13726 33-251, looked up, variant K15A, extracellular domain) extracellular domain: SGTTNTVAAYNLTWASTNFKTILEWEPKPVNQVYTVQISTKSGDWKSKCFYTTDTECDLTDEIVKDVKQTYLARVFSYPAGNVESTGSAGEPLYENSPEFTPYLETNLGQPTIQSFEQVGTKVNVTVEDERTLVRRNNTFLSLRDVFGKDLIYTLYYWKSSSSGKKTAKTNTNEFLIDVDKGENYCFSVQAVIPSRTVNRKSTDSPVECMGQEKGEFRE | Neutral (neutral (little effect) 4.184 kJ/mol < ΔΔG > −4.184 kJ/mol) |  |  |  | -1.63 kJ
11 | 1DAN ET24A (protein, UniProt P13726 33-251, looked up, variant E24A, extracellular domain) extracellular domain: SGTTNTVAAYNLTWKSTNFKTILAWEPKPVNQVYTVQISTKSGDWKSKCFYTTDTECDLTDEIVKDVKQTYLARVFSYPAGNVESTGSAGEPLYENSPEFTPYLETNLGQPTIQSFEQVGTKVNVTVEDERTLVRRNNTFLSLRDVFGKDLIYTLYYWKSSSSGKKTAKTNTNEFLIDVDKGENYCFSVQAVIPSRTVNRKSTDSPVECMGQEKGEFRE | Neutral (neutral (little effect) 4.184 kJ/mol < ΔΔG > −4.184 kJ/mol) |  |  |  | 2.76 kJ
12 | 1DAN KT28A (protein, UniProt P13726 33-251, looked up, variant K28A, extracellular domain) extracellular domain: SGTTNTVAAYNLTWKSTNFKTILEWEPAPVNQVYTVQISTKSGDWKSKCFYTTDTECDLTDEIVKDVKQTYLARVFSYPAGNVESTGSAGEPLYENSPEFTPYLETNLGQPTIQSFEQVGTKVNVTVEDERTLVRRNNTFLSLRDVFGKDLIYTLYYWKSSSSGKKTAKTNTNEFLIDVDKGENYCFSVQAVIPSRTVNRKSTDSPVECMGQEKGEFRE | Neutral (neutral (little effect) 4.184 kJ/mol < ΔΔG > −4.184 kJ/mol) |  |  |  | 0.50 kJ
13 | 1DAN KT41A (protein, UniProt P13726 33-251, looked up, variant K41A, extracellular domain) extracellular domain: SGTTNTVAAYNLTWKSTNFKTILEWEPKPVNQVYTVQISTASGDWKSKCFYTTDTECDLTDEIVKDVKQTYLARVFSYPAGNVESTGSAGEPLYENSPEFTPYLETNLGQPTIQSFEQVGTKVNVTVEDERTLVRRNNTFLSLRDVFGKDLIYTLYYWKSSSSGKKTAKTNTNEFLIDVDKGENYCFSVQAVIPSRTVNRKSTDSPVECMGQEKGEFRE | Neutral (neutral (little effect) 4.184 kJ/mol < ΔΔG > −4.184 kJ/mol) |  |  |  | 1.38 kJ
14 | 1DAN KT20A (protein, UniProt P13726 33-251, looked up, variant K20A, extracellular domain) extracellular domain: SGTTNTVAAYNLTWKSTNFATILEWEPKPVNQVYTVQISTKSGDWKSKCFYTTDTECDLTDEIVKDVKQTYLARVFSYPAGNVESTGSAGEPLYENSPEFTPYLETNLGQPTIQSFEQVGTKVNVTVEDERTLVRRNNTFLSLRDVFGKDLIYTLYYWKSSSSGKKTAKTNTNEFLIDVDKGENYCFSVQAVIPSRTVNRKSTDSPVECMGQEKGEFRE | Positive (positive (a hot residue) ΔΔG ≥ 4.184 kJ/mol) |  |  |  | 10.21 kJ
15 | 1DAN ET26A (protein, UniProt P13726 33-251, looked up, variant E26A, extracellular domain) extracellular domain: SGTTNTVAAYNLTWKSTNFKTILEWAPKPVNQVYTVQISTKSGDWKSKCFYTTDTECDLTDEIVKDVKQTYLARVFSYPAGNVESTGSAGEPLYENSPEFTPYLETNLGQPTIQSFEQVGTKVNVTVEDERTLVRRNNTFLSLRDVFGKDLIYTLYYWKSSSSGKKTAKTNTNEFLIDVDKGENYCFSVQAVIPSRTVNRKSTDSPVECMGQEKGEFRE | Neutral (neutral (little effect) 4.184 kJ/mol < ΔΔG > −4.184 kJ/mol) |  |  |  | 0.46 kJ
